The source of these data is paper PMC9924070 (Science Translational Medicine, 2021).

The target of assay [1] is mouse IgG1 Fc-fused SARS-CoV-2 RBD (SARS-CoV-2, UniProt P0DTC2). Put plainly: BLI. The following applies: both partners purified.
Assay [2] concerns the target SARS-CoV-1 spike (SARS-CoV-1, reference entry; strain not …, UniProt P59594). Put plainly: cell-based or functional assay.
Assay [3] concerns the target monomeric human Fc-fused SARS-CoV-2_RBD-SD1 (SARS-CoV-2, Wuhan-Hu-1, UniProt P0DTC2). The experiment in a line: BLI. The following applies: both partners purified.

The term koff denotes a measure of how fast the partners let go of each other. A lower koff goes with a long-lived complex.

Changes are numbered by the printed parent chain. Names and notes keep the numbering of the source.

B1: humVHH_S56A (VHH)
VHH: EVQLVESGGGLVQPGGSLRLSCAASGRTFSEYAMGWFRQAPGKEREFVATISWSGGATYYTDSVKGRFTISRDNAKNTVYLQMNSLRPEDTAVYYCAAAGLGTVVSEWDYDYDYWGQGTLVTVSS
notes: also called humVHH72_S56A; VHH72_h1_S56A
The molecule B1 displayed a koff in assay [1] of 0.019 s⁻¹.

B2: humVHH_S56A (VHH)
VHH: B1 VHH
notes: also called monomeric humanized VHH72 with the S56A substitution
Turning to B2, the “neutralization of VSV SARS-CoV-1 spike pseudotype virus, potency against humVHH” value in assay [2] stood at 10 fold. Besides, the “fold increase in affinity over humVHH” value in assay [3] is ~7 fold.

B3: humVHH (VHH)
VHH: B1 VHH with A57S
notes: also called humanized VHH72; VHH72_h1
In assay [1], B3 showed a koff of 0.075 s⁻¹.
